{"source": "patent US12338277", "test_in_all_cases": "cell-based or functional assay", "key": {"[1]": {"target": "HIV-1 envelope glycoprotein of pseudovirus 6952.v1.c20 (clade CD) (HIV-1)"}, "[2]": {"target": "HIV-1 envelope glycoprotein of pseudovirus 1394C9G1(Rev-) (clade C (T/F)) (HIV-1)"}, "[3]": {"target": "HIV-1 envelope glycoprotein of pseudovirus 0260.v5.c36 (clade A) (HIV-1)"}, "[4]": {"target": "HIV-1 envelope glycoprotein of pseudovirus CNE52 (clade BC) (HIV-1)"}, "[5]": {"target": "HIV-1 envelope glycoprotein of pseudovirus X1193 c1 (clade G) (HIV-1)"}, "[6]": {"target": "HIV-1 envelope glycoprotein of pseudovirus ZM214M.PL15 (clade C) (HIV-1)"}, "[7]": {"target": "HIV-1 envelope glycoprotein of pseudovirus ZM233M.PB6 (clade C) (HIV-1)"}, "[8]": {"target": "HIV-1 envelope glycoprotein of pseudovirus CNE58 (clade BC) (HIV-1)"}, "[9]": {"target": "HIV-1 envelope glycoprotein of pseudovirus A07412m1.vrv12 (clade D) (HIV-1)"}, "[10]": {"target": "HIV-1 envelope glycoprotein of pseudovirus 3365.v2.c2 (clade A) (HIV-1)"}, "[11]": {"target": "HIV-1 envelope glycoprotein of pseudovirus T278-50 (clade CRF02 AG) (HIV-1)"}, "[12]": {"target": "HIV-1 envelope glycoprotein of pseudovirus 3817.v2.c59 (clade CD) (HIV-1)"}, "[13]": {"target": "HIV-1 envelope glycoprotein of pseudovirus PVO.4 (clade B) (HIV-1)"}, "[14]": {"target": "HIV-1 envelope glycoprotein of pseudovirus HIV-16845-2.22 (clade C) (HIV-1)"}, "[15]": {"target": "HIV-1 envelope glycoprotein of pseudovirus 235-47 (clade CRF02_AG) (HIV-1)"}, "[16]": {"target": "HIV-1 envelope glycoprotein of pseudovirus 6244_13_B5_4576 (clade B (T/F)) (HIV-1)"}, "[17]": {"target": "HIV-1 Env of pseudovirus T250-4 (HIV-1)"}, "[18]": {"target": "HIV-1 envelope of pseudovirus X2131_C1_85 (HIV-1)"}, "[19]": {"target": "HIV-1 Env of pseudovirus P1981_C5_3 (HIV-1)"}}, "data": [{"substance": "PGT121 (antibody)", "values": [{"measurement": "IC50 in the TZM-bl neutralization assay", "setting": "[1]", "result": 0.605, "unit": "µg/mL"}, {"measurement": "IC50 in the TZM-bl neutralization assay", "setting": "[2]", "result": 3.37, "unit": "µg/mL"}, {"measurement": "IC50 in the TZM-bl neutralization assay", "setting": "[3]", "result": 0.152, "unit": "µg/mL"}, {"measurement": "IC50 in the TZM-bl neutralization assay", "setting": "[4]", "result": 32.9, "unit": "µg/mL"}, {"measurement": "IC50 in the TZM-bl neutralization assay", "setting": "[5]", "result": 0.202, "unit": "µg/mL"}, {"measurement": "IC50 in the TZM-bl neutralization assay", "setting": "[6]", "result": 3.15, "unit": "µg/mL"}, {"measurement": "IC50 in the TZM-bl neutralization assay", "setting": "[7]", "result": 8.98, "unit": "µg/mL"}, {"measurement": "IC50 in the TZM-bl neutralization assay", "setting": "[8]", "result": "> 50", "unit": "µg/mL"}, {"measurement": "IC50 in the TZM-bl neutralization assay", "setting": "[9]", "result": 0.406, "unit": "µg/mL"}, {"measurement": "IC50 in the TZM-bl neutralization assay", "setting": "[10]", "result": 7.35, "unit": "µg/mL"}, {"measurement": "IC50 in the TZM-bl neutralization assay", "setting": "[11]", "result": "> 50", "unit": "µg/mL"}, {"measurement": "IC50 in the TZM-bl neutralization assay", "setting": "[12]", "result": "> 50", "unit": "µg/mL"}, {"measurement": "IC50 in the TZM-bl neutralization assay", "setting": "[13]", "result": 0.945, "unit": "µg/mL"}, {"measurement": "IC50 in the TZM-bl neutralization assay", "setting": "[14]", "result": "> 50", "unit": "µg/mL"}, {"measurement": "IC50 in the TZM-bl neutralization assay", "setting": "[15]", "result": 1.68, "unit": "µg/mL"}, {"measurement": "IC50 in the TZM-bl neutralization assay", "setting": "[16]", "result": 1.88, "unit": "µg/mL"}]}, {"substance": "10-996 (antibody)", "values": [{"measurement": "IC80 (TZM-bl neutralization)", "setting": "[17]", "result": 5, "unit": "ng/mL"}, {"measurement": "IC50 (TZM-bl neutralization)", "setting": "[18]", "result": 0.019, "unit": "µg/mL"}, {"measurement": "IC80 (TZM-bl neutralization)", "setting": "[19]", "result": 0.018, "unit": "µg/mL"}]}, {"substance": "10-1074 (antibody)", "values": [{"measurement": "IC80 (TZM-bl neutralization)", "setting": "[17]", "result": 5, "unit": "ng/mL"}, {"measurement": "IC50 in the TZM-bl neutralization assay", "setting": "[1]", "result": 0.138, "unit": "µg/mL"}, {"measurement": "IC50 (TZM-bl neutralization)", "setting": "[18]", "result": 0.016, "unit": "µg/mL"}, {"measurement": "IC50 in the TZM-bl neutralization assay", "setting": "[2]", "result": 0.191, "unit": "µg/mL"}, {"measurement": "IC50 in the TZM-bl neutralization assay", "setting": "[3]", "result": 0.16, "unit": "µg/mL"}, {"measurement": "IC50 in the TZM-bl neutralization assay", "setting": "[4]", "result": 13.1, "unit": "µg/mL"}, {"measurement": "IC50 in the TZM-bl neutralization assay", "setting": "[5]", "result": 0.475, "unit": "µg/mL"}, {"measurement": "IC50 in the TZM-bl neutralization assay", "setting": "[6]", "result": 2.37, "unit": "µg/mL"}, {"measurement": "IC50 in the TZM-bl neutralization assay", "setting": "[7]", "result": 0.349, "unit": "µg/mL"}, {"measurement": "IC50 in the TZM-bl neutralization assay", "setting": "[8]", "result": 0.968, "unit": "µg/mL"}, {"measurement": "IC80 (TZM-bl neutralization)", "setting": "[19]", "result": 0.017, "unit": "µg/mL"}, {"measurement": "IC50 in the TZM-bl neutralization assay", "setting": "[9]", "result": 0.048, "unit": "µg/mL"}, {"measurement": "IC50 in the TZM-bl neutralization assay", "setting": "[10]", "result": 0.45, "unit": "µg/mL"}, {"measurement": "IC50 in the TZM-bl neutralization assay", "setting": "[11]", "result": 18.3, "unit": "µg/mL"}, {"measurement": "IC50 in the TZM-bl neutralization assay", "setting": "[12]", "result": 14.9, "unit": "µg/mL"}, {"measurement": "IC50 in the TZM-bl neutralization assay", "setting": "[13]", "result": 0.36, "unit": "µg/mL"}, {"measurement": "IC50 in the TZM-bl neutralization assay", "setting": "[14]", "result": 5.83, "unit": "µg/mL"}, {"measurement": "IC50 in the TZM-bl neutralization assay", "setting": "[15]", "result": 0.163, "unit": "µg/mL"}, {"measurement": "IC50 in the TZM-bl neutralization assay", "setting": "[16]", "result": 0.922, "unit": "µg/mL"}]}]}
